Experimental data from the supplement of paper PMC9170038.

Experiments:
MS2 coat protein [1] = assay: apparent KD of MS2 coat protein; designed switch direction (-1 OFF switch, 1 ON switch): -1; higher = weaker reporter binding; conditions: Eterna round: R98
Experimental: (§1)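 RNA-MaP: designed FMN/MS2 RNA switches (84 nt design region) are transcribed on-chip within common flanks and titrated with SNAP-549-labelled MS2 coat protein (about 1-3000 nM) in 100 mM Tris pH 7.5, 80 mM KCl, 4 mM MgCl2, without or with 200 uM FMN. Median apparent KD per design; activation ratio = KD,OFF / KD,ON.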

MS2 coat protein [2] = assay: apparent KD of MS2 coat protein; higher = weaker reporter binding; conditions: Eterna round: R101
Experimental: as §1

Sequence | apparent KD of MS2 coat protein (MS2 coat protein [1]; input ligand: FMN 200 uM) | apparent KD of MS2 coat protein (MS2 coat protein [1]; input ligand: none) | apparent KD of MS2 coat protein (MS2 coat protein [2]; input ligand: FMN 200 uM) | apparent KD of MS2 coat protein (MS2 coat protein [2]; input ligand: none)
AAAGUCGAGAAGAUAAUAAUGAAUACAUGAGGAUCACCCAUGUAGGAUAUGCAGUGGAAUACACUGCAGAAGGACAUACUCGAC [Exclusion NG 3/16-B1] | 16.4 nM | 13.6 nM |  | 
GCUGCAAAGUAAGGAUAUGCCUAGGAAACCUAGGCAGAAGGUACAUGAGGAUCACCCAUGUUAACUGAAACAGAAUAAAGCAGC [Thrunch 6 - Jieux - Exclusion NG 1] | 23.2 nM | 13.5 nM |  | 
AUGGUUGUCGUAGGAUAUGUAGGAUAUUCCUACAUGAGGAUCACCCAUGUUCGCAUGGAAGAAGGACAGAAGGACGAUGACCAA [salish99_SSNG2_008 #endbits investigation] (puzzle (switch architecture): Same State NG 2) |  |  | 9.65 nM | 840 nM
GCAGCUAAUGCAGGAUAUCAGCACGUGUAGUGCUGAGAAGGGCACAUGAGGAUUCUGUCUGUGAUCAAUUAAUAUUAAUGCUGC [salish99#hingeEx3_55-58_006] (puzzle (switch architecture): Exclusion NG 1) |  |  | 11.5 nM | 30.4 nM
AGUACUCCAGAAGGAUAUGCGUCGGUGGAUGUCCUUAGGCGGACGGUCACAUGAGGAUCACCCAUGUAGAAGGUCUGGGAGCCA [Leesla] | 87.3 nM | 19.2 nM |  | 
CUCCCUCCCUCCCUCCCUCCCUCCGAGGAUAUCCCAAACUCCCUCCCUCCCUCCCUCCCAAAUUCCCAGAAGGCCCUUUUUCCC [2nd design] (puzzle (switch architecture): Small Loop Same State NG 3) |  |  | 4.61 nM | 46.4 nM
GUAGCUAUCGGAGGAUAUUCAUACCGGAAACGGACAUGAGGAUCACCCAUGUGGCGAAAGCCAUGGGAGAAGGCCGAUAGCUAC [jl-sng2-3.01 #MUTATE_MAP] (puzzle (switch architecture): Same State NG 2) |  |  | 52.2 nM | 856 nM
GCGUAAAAGAUCCUAUUUAUCUACAUGAGGAUCACCCAUGUGCAGGAUAUGCUAUAUUUAAUAAAGCAGAAGGGCAAUAACCGC [JR_ExcNG3_Sub009] | 281 nM | 67.6 nM |  | 
UGUGUUAUCGGAGGAUAUCGAUAUCAAACAUGAGGAUCACCCAUGUUGAGGAUCACCCAUGUCCACGAGAAGGCCGGCGUACUG [My 7th design] (puzzle (switch architecture): Same State NG 2) |  |  | 12.5 nM | 12.9 nM
UCUUAAAUGAUCCUAUUUACCAACAUGAGGAUCACCCAUGUGCAGGAUAUGCUAAAGAUAGAUAAGCAGAAGGGCAUUAACCGC [JR_ExcNG3_Sub006] | 244 nM | 165 nM |  | 
AAUAAACAAUAAAAGACUGGAGCAAACUUCUGAGGAUCACCCAGAAGGCGUCACCUAAUAGGUGACGAGGAUAUGGAGCUCCAG [#SharedSequence IExNG# - 2] (puzzle (switch architecture): Inverted Exclusion NG 3) |  |  | 6.36 nM | 5.76 nM
CAAUUGGCACAGAAGGGUGACAUGAGGAUCACCCAUGUAGCGUGGCUCUCAGGAGGAGCCACGCCACAGGAUAUGUGCCGGCAC [Anrilaage] (puzzle (switch architecture): Inverted Same State NG 2) |  |  | 102 nM | 177 nM
AAAUAAAUUGAAGGAUAUCAGGGUGCACCUCAGUAAAACUGAGGUGCACCCUGAGAAGGUCGAGGAUCACCCGAUCUAAAUAAA [#SharedSequence SLExNG1: 1-2] (puzzle (switch architecture): Small Loop Exclusion NG 1) |  |  | 12 nM | 8.76 nM
GGUUAUAUAACAUGAGGAUCACCCAUGUGAGUGGUCCGAAGCUAGGAUAUCCACACGAGAAGUGUGGAGAAGGAGCAUUCAUUA [AK-NGROCr2-ExNG3-7] | 159 nM | 273 nM |  | 
AGGUGGGUGCUGCAGUGAUAUACAUGAGGAUCACCCAUGUCCGAGGAUAUGCGGCAAACACGCCAGCAGAAGGCGGAGAAAAUG [Soorisrila] | 154 nM | 125 nM |  | 
CACGACAGGAAACGGAGCGGCCAACAUGAGGAUCACCCAUGUGAGGAUAUGCCUACUAAAAGUAGGCAGAAGGCACAGAAGGCA [Ex NG2 #73] | 136 nM | 58.1 nM |  | 
UUGCAUUGAUGAGGAUAUGGACAUGAGGAUCACCCAUGUUGGGCGGGUAUGAUUUCCGAGGGAGGCUAGAAGGCGUAUUAUGUU [Exclusion NG 2] | 60.8 nM | 45.5 nM |  | 
AAAUAAAUUCAAGGAUAUGACUCCGAAACGGAGUCAGAAGGUGAGGAUCACCCACCUAUGAUCAGACCUCAGGAAACUGAGGUC [#SharedSequence ExNG1 - 39] (puzzle (switch architecture): Exclusion NG 1) |  |  | 6.56 nM | 6.19 nM
GCACUGGAUGUAGGAUAUCAGGACGAUAAGUCCUGAGAAGGACAUGAGGAUCACCCAUGUAAAUACUCCCAGUGCAAUAAUAUA [Denovo Exng1 21] | 16.6 nM | 12.6 nM |  | 
AAUUAAUUAAUUAAUUGGACUGAUACAUGAGGAUCACCCAUGUAGGAUAUGCAGUGGAAUACACUGCAGAAGGACAUACAGUCC [Exclusion NG 3/1-B2] | 18.3 nM | 14.5 nM |  | 
